± gives the uncertainty stated by the source.
Assay: self-splicing fitness, log relative to wild type (ln ratio); higher = more splicing; Tetrahymena group I intron in knt gene, E. coli kanamycin selection, DiMSum; sequences stand for … in CUCUCU…GGAGGGAAAAGUUAUCAGGCAUGCACCUGGUAGCUAGUCUUUAAACCAAUAGAUUGCAUCGGUUUAAAAGGCAAGACCGUCAAAUUGCGGGAAAGGGGUCAACAGCCGUUCAGUACCAAGUCUCAGGGGAAACUUUGAGAUGGCCUUGCAAAGGGUAUGGUAAUAAGCUGACGGACAUGGUCCUAACCACGCAGCCAAGUCCUAAGUCAACAGAUCUUCUGUUGAUAUGGAUGCAGUUCACAGACUAAAUGUCGGUCGGGGAAGAUGUAUUCUUCUCAUAAGAUAUAGUCGGACCUCUCCUUAAUGGGAGCUAGCGGAUGAAGUGAUGCAACACUGGAGCCGCUGGGAACUAAUUUGUAUGCGAAAGUAUAUUGAUUAGUUUUGGAGUACUCGUGGUCG
In short: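 Fitness was computed with DiMSum as the error-weighted combination of replicate fold changes, kanamycin versus none, each normalised to wild type. The library randomised all eight intron nucleotides of the P1ex region, with the intron placed in the knt kanamycin-resistance gene on pET-22b(+) in E. coli BL21(DE3). Six replicate transformations were grown overnight at 37°C or 30°C on LB agar with or without 25 μg/mL kanamycin, plus 100 μg/mL carbenicillin, 50 μM IPTG and 0.2% rhamnose. Pooled colonies were amplicon-sequenced on an Illumina HiSeq 2500.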

| Sequence | self-splicing fitness (ln) (30 °C) | self-splicing fitness (ln) (37 °C) |
| --- | --- | --- |
| CAUUAGCAAUAUUACGGCUA | -2.88 ± 0.29 | -1.47 ± 0.15 |
| UACGAGCAAUAUUACGAUGG | -2.85 ± 0.22 | -2.29 ± 0.24 |
| UCCGAGCAAUAUUACGCUGG | -3.33 ± 0.21 | -1.56 ± 0.19 |
| UACGAGCAAUAUUACGGAUA | -2.3 ± 0.17 | -1.43 ± 0.12 |
| CGAUAGCAAUAUUACGGUAA | -3.58 ± 0.31 | -1.8 ± 0.27 |
| CAAAAGCAAUAUUACGACCA | -1.95 ± 0.2 | -1.48 ± 0.19 |
| AAAUAGCAAUAUUACGGAGA | -1.86 ± 0.23 | -2.11 ± 0.3 |
| CUUUAGCAAUAUUACGGCGU | -3.31 ± 0.47 | -1.89 ± 0.26 |
| CGCGAGCAAUAUUACGUUCU | -3.71 ± 0.28 | -2.76 ± 0.38 |
| CGACAGCAAUAUUACGCGCA | -1.17 ± 0.13 | -0.0102 ± 0.12 |
| UAAUAGCAAUAUUACGUGCA | -1.36 ± 0.11 | -1.34 ± 0.099 |
| ACGAAGCAAUAUUACGCUUA | -1.81 ± 0.087 | -0.374 ± 0.083 |
| GGCGAGCAAUAUUACGGUUC | -1.46 ± 0.13 | -0.156 ± 0.13 |
| ACGUAGCAAUAUUACGUUGC | -3.35 ± 0.24 | -1.68 ± 0.22 |
| GAACAGCAAUAUUACGCAGC | -2.2 ± 0.29 | -1.16 ± 0.23 |
| AUUUAGCAAUAUUACGCACC | -1.01 ± 0.18 | -0.21 ± 0.2 |
| UAAAAGCAAUAUUACGAAAG | -2.21 ± 0.17 | -1.56 ± 0.16 |
| UAGUAGCAAUAUUACGGGUU | -3.97 ± 0.27 | -2.66 ± 0.2 |
| GUGCAGCAAUAUUACGUUCC | -2.72 ± 0.18 | -1.05 ± 0.25 |
| CCAGAGCAAUAUUACGGCGU | -4.2 ± 0.23 | -3.29 ± 0.29 |
| CUGAAGCAAUAUUACGAGCA | -3.59 ± 0.19 | -2.01 ± 0.2 |
| UCCCAGCAAUAUUACGAACC | -1.58 ± 0.2 | -2.08 ± 0.46 |
| GGAGAGCAAUAUUACGCUCC | – | -1.68 ± 0.45 |
| CCAGAGCAAUAUUACGGGGA | -3.06 ± 0.18 | -2.61 ± 0.21 |
| CCAAAGCAAUAUUACGAACG | 0.08 ± 0.054 | -0.168 ± 0.071 |

| Sequence | self-splicing fitness (ln) (30 °C) | self-splicing fitness (ln) (37 °C) |
| --- | --- | --- |
| UGUUAGCAAUAUUACGCUAU | -3.53 ± 0.49 | -1.29 ± 0.32 |
| CUCCAGCAAUAUUACGAGCG | -2.95 ± 0.16 | -2.56 ± 0.23 |
| GGACAGCAAUAUUACGUAUG | -1.13 ± 0.073 | -0.419 ± 0.08 |
| AGCUAGCAAUAUUACGCCAG | -3.78 ± 0.36 | -2.27 ± 0.35 |
| AGGUAGCAAUAUUACGCCUU | -4.13 ± 0.038 | -2.87 ± 0.048 |
| UCUAAGCAAUAUUACGCAAA | -3.34 ± 0.21 | -2.97 ± 0.2 |
| UGAAAGCAAUAUUACGCUAA | -1 ± 0.12 | -0.805 ± 0.13 |
| CCCUAGCAAUAUUACGGGGA | -3.28 ± 0.23 | -2.41 ± 0.2 |
| CUGAAGCAAUAUUACGAGAU | -2.63 ± 0.15 | -1.57 ± 0.15 |
| GGGCAGCAAUAUUACGAUCG | -0.913 ± 0.098 | 0.377 ± 0.15 |
| GACCAGCAAUAUUACGUCCU | -1.86 ± 0.1 | 0.317 ± 0.11 |
| AUAGAGCAAUAUUACGUUGC | -2.95 ± 0.2 | -2.05 ± 0.26 |
| UUGUAGCAAUAUUACGCGCU | -2.05 ± 0.16 | -0.976 ± 0.11 |
| UGAUAGCAAUAUUACGGAGG | -2.79 ± 0.26 | -1.56 ± 0.36 |
| AUCUAGCAAUAUUACGAUGC | -1.74 ± 0.13 | -1.33 ± 0.16 |
| CUAGAGCAAUAUUACGCCAA | -0.987 ± 0.2 | -2.54 ± 0.41 |
| GUACAGCAAUAUUACGUUUG | -3.06 ± 0.13 | -2.59 ± 0.17 |
| CUCCAGCAAUAUUACGAAUG | -1.39 ± 0.083 | -0.438 ± 0.11 |
| CAACAGCAAUAUUACGCGAU | -5.11 ± 0.45 | -2.63 ± 0.23 |
| UUGAAGCAAUAUUACGUCCU | -0.231 ± 0.18 | -0.346 ± 0.13 |
| UAUUAGCAAUAUUACGUGCG | -0.929 ± 0.079 | -0.636 ± 0.12 |
| GACUAGCAAUAUUACGACAA | -0.896 ± 0.063 | -0.0215 ± 0.069 |
| AUAAAGCAAUAUUACGCGCG | -0.354 ± 0.09 | 0.713 ± 0.12 |
| CCCGAGCAAUAUUACGCGAC | -1.96 ± 0.29 | -1.68 ± 0.29 |
| UCUGAGCAAUAUUACGCCGG | -1.96 ± 0.22 | -0.975 ± 0.24 |

| Sequence | self-splicing fitness (ln) (30 °C) | self-splicing fitness (ln) (37 °C) |
| --- | --- | --- |
| AAUGAGCAAUAUUACGGGAA | -2.61 ± 0.26 | -3.04 ± 0.33 |
| AUGAAGCAAUAUUACGCCAU | -1.17 ± 0.082 | -0.85 ± 0.12 |
| CGUUAGCAAUAUUACGACAC | -2.43 ± 0.21 | -0.891 ± 0.19 |
| CCCUAGCAAUAUUACGUAUU | -3.8 ± 0.17 | -2.92 ± 0.18 |
| ACUAAGCAAUAUUACGCUUU | -2.34 ± 0.17 | -1.97 ± 0.18 |
| ACAGAGCAAUAUUACGGAAC | – | -1.97 ± 0.36 |
| CUUGAGCAAUAUUACGUUAA | -2.47 ± 0.16 | -2.6 ± 0.22 |
| CGAAAGCAAUAUUACGUUAC | -3.15 ± 0.18 | -3.01 ± 0.26 |
| UUUCAGCAAUAUUACGAGCG | -0.768 ± 0.09 | -0.289 ± 0.11 |
| GAUCAGCAAUAUUACGGUAC | -0.39 ± 0.11 | -0.884 ± 0.12 |
| ACGGAGCAAUAUUACGUGAU | -3.47 ± 0.19 | -1.32 ± 0.2 |
| CGCGAGCAAUAUUACGGAGG | -3.29 ± 0.22 | -1.41 ± 0.19 |
| AUAGAGCAAUAUUACGUCUC | -0.924 ± 0.15 | -0.745 ± 0.16 |
| ACUCAGCAAUAUUACGAGCA | -0.632 ± 0.068 | 0.302 ± 0.092 |
| AUGCAGCAAUAUUACGCAGU | -3.23 ± 0.16 | -1.69 ± 0.12 |
| CCGCAGCAAUAUUACGACUG | -3.17 ± 0.14 | -1.71 ± 0.13 |
| GAUGAGCAAUAUUACGCACG | -3.63 ± 0.32 | -2.25 ± 0.3 |
| UGCGAGCAAUAUUACGGAAC | – | -2.25 ± 0.39 |
| GCCAAGCAAUAUUACGGGCG | -1.36 ± 0.09 | -0.322 ± 0.11 |
| GUAUAGCAAUAUUACGAACC | -2.63 ± 0.43 | -0.238 ± 0.23 |
| GCCCAGCAAUAUUACGCCUG | -3.5 ± 0.3 | -2.64 ± 0.26 |
| AACCAGCAAUAUUACGCUGU | -3.49 ± 0.15 | -1.4 ± 0.095 |
| UGACAGCAAUAUUACGAGCC | -3.37 ± 0.28 | -2.24 ± 0.38 |
| AAAGAGCAAUAUUACGGCUU | -1.05 ± 0.11 | -0.397 ± 0.14 |
| CUACAGCAAUAUUACGAAAU | -3.72 ± 0.16 | -2.82 ± 0.17 |
